Laboratory results: patent publication US20250195679A1, “ANTIBODY-DRUG CONJUGATE AND USE THEREOF” (SHANGHAI HUAOTA BIOPHARMACEUTICAL CO., LTD., priority 2022, published 2025)

T1: human CD73 (CHOK1-huCD73-3F4 cells) (Homo sapiens, UniProt P21589)
T1 construct: host or cells: CHOK1-huCD73-3F4 (CHO-K1 clone)
T1 sequence (P21589 27-549): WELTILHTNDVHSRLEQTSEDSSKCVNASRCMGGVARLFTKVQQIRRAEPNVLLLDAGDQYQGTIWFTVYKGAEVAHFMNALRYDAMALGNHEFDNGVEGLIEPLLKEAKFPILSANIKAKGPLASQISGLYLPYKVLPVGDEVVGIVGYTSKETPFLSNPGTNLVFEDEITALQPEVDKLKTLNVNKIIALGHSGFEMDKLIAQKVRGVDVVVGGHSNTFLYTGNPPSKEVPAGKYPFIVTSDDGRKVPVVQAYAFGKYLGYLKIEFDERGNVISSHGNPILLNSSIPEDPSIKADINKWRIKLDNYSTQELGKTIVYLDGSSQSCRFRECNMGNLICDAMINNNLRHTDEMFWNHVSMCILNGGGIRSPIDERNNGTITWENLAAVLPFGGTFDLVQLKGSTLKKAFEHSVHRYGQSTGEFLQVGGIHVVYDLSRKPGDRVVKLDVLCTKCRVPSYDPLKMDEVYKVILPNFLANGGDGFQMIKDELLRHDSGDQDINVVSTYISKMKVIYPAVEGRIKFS


Tests used:
[1] = target: T1, human CD73 (CHOK1-huCD73-3F4 cells); test: Cell binding activity to human CD73 antigen expressed on membrane (flow cytometry); assay type: cell-based; settings: FACS, FIG. 2
Procedure: The binding activity of the antibody-drug conjugate 1 and the antibody-drug conjugate 2 prepared in Example 1 and the 900698 naked antibody to cells expressing human CD73 (CHOK1-huCD73-3F4, Huabo Biopharm) was assayed.
All antigen-binding proteins were diluted to 30 μg/mL with a solution of 1% BSA in PBS (1% BSA/PBS), followed by a 3-fold dilution across 10 gradients. The diluted proteins were each added at 20 μL per well to a 96-well U-bottom plate, with a negative control (adding only 1% BSA/PBS) set up simultaneously. A suspension of cells expressing human CD73 (CHOK1-huCD73-3F4, Huabo Biopharm) in the logarithmic growth phase was taken and centrifuged (1000 rpm×5 min), and then the culture medium was discarded. The cells were resuspended in 1% BSA/PBS until the viable cell density was 1×10^6 cells/mL, then added at 20 μL (2×10^4 cells) per well to the 96-well U-bottom plate containing the anti-CD73 antigen-binding proteins, and incubated at room temperature for reaction for 30 min. The reacted cells in the 96-well U-bottom plate were resuspended in 1% BSA/PBS and centrifuged (300 g×3 min), and then the supernatant was discarded. This washing process was performed once. Then, a 1:200 dilution of PE-goat anti-human-Fc (Jackson ImmunoResearch, #109-115-098) was added, and the cells were incubated in the dark at room temperature for reaction for 15 min. The reacted cells in the 96-well U-bottom plate were further resuspended in 1% BSA/PBS and centrifuged (300 g×3 min), and then the supernatant was discarded. This washing process was performed 3 times. Finally, the cells were resuspended in 100 μL of 1% BSA/PBS per well, and the fluorescence intensity in the PE channel was detected using a flow cytometer (BD, #Canto II).
The results for the binding activity of the antibody-drug conjugate 1, the antibody-drug conjugate 2, and the 900698 naked antibody are shown in FIG. 2 (represented as 1-3 in FIG. 2, respectively).

MDA-MB-231 cells = test: Killing of tumor cells highly expressing CD73 (CellTiter-Glo); assay type: cell-based, human; settings: cells highly expressing CD73, 5 days, FIG. 6
Procedure: The specific procedures were as follows: MDA-MB-231 cells and MCF-7 cells were prepared into cell suspensions at densities of 8E4 cells/mL and 7.5E5 cells/mL, respectively, which were then each added onto a 96-well cell culture plate at 100 μL per well. The 96-well cell culture plate was sealed with liquid and then incubated in an incubator at 37° C. with 5% CO2 for 6 h. With an assay medium, the antibody-drug conjugate 1, the antibody-drug conjugate 2, and the 900698 naked antibody were each diluted to 400 μg/mL and then subjected to a 2-fold dilution to give 8 concentrations, resulting in a total of 9 concentrations. The same dilution procedure was performed for the Buffer solution as for the antibody-drug conjugate 1. The gradient dilution solutions were each added at 50 μL/well to the 96-well cell culture plate after the above incubation was completed. Each sample well was then supplemented with 50 μL of the corresponding assay medium. The 96-well cell culture plate was further incubated in an incubator at 37° C. with 5% CO2 for another 5 days. After the incubation was completed, the 96-well plate was removed from the incubator, 100 μL of culture medium was aspirated from each well, and then the equilibrated Celltiter-Glo Luminescent Cell Viability Assay reagent (Promega, #G7573) was added at 100 μL/well. After shaking for reaction in the dark at room temperature for 10 min, 100 μL of culture medium was taken from each well, transferred to the corresponding well of a 96-well black plate, and then subjected to full-wavelength detection using a microplate reader.

Row | Molecule | binding activity (affinity) for cells expressing human CD73 [1] | killing effect on MDA-MB-231 cells (MDA-MB-231 cells)
1 | Antibody-drug conjugate 1: 900698 antibody cysteine-conjugated to SN-38 via Mc-VC-PAB-DMEDA-PEG linker, DAR about 7.8 (conjugate) VH: QVQLVESGGGLVKPGGSLRLSCAASGFTFSKYAMSWIRQAPGKGLEWVAEISSGGGYINYADSVKGRFTISRDNAKNSLYLQMNSLRAEDTAVYYCARAIYYYGSSYNYYAMDYWGQGTTVTVSS VL: DIQMTQSPSSLSASVGDRVTITCRASQDVGTAEAWYQQKPGKAPKLLIYWASTRHTGVPSRFSGSGSGTDFTLTISSLQPEDFATYYCQQYSSYPLTFGQGTKLEIK | good affinity | excellent killing effects
2 | Antibody-drug conjugate 2: 900698 antibody cysteine-conjugated to SN-38 via MP2-VC-PAB-DMEDA-PEG linker, DAR about 7.8 (conjugate) VH: QVQLVESGGGLVKPGGSLRLSCAASGFTFSKYAMSWIRQAPGKGLEWVAEISSGGGYINYADSVKGRFTISRDNAKNSLYLQMNSLRAEDTAVYYCARAIYYYGSSYNYYAMDYWGQGTTVTVSS VL: DIQMTQSPSSLSASVGDRVTITCRASQDVGTAEAWYQQKPGKAPKLLIYWASTRHTGVPSRFSGSGSGTDFTLTISSLQPEDFATYYCQQYSSYPLTFGQGTKLEIK | good affinity | excellent killing effects
3 | 900698: anti-CD73 antibody, VH SEQ ID NO: 35, VL SEQ ID NO: 34 (antibody, V domains shown, 900696, 900698 (VH); 900695, 900698 (VL)) VH: QVQLVESGGGLVKPGGSLRLSCAASGFTFSKYAMSWIRQAPGKGLEWVAEISSGGGYINYADSVKGRFTISRDNAKNSLYLQMNSLRAEDTAVYYCARAIYYYGSSYNYYAMDYWGQGTTVTVSS VL: DIQMTQSPSSLSASVGDRVTITCRASQDVGTAEAWYQQKPGKAPKLLIYWASTRHTGVPSRFSGSGSGTDFTLTISSLQPEDFATYYCQQYSSYPLTFGQGTKLEIK | good affinity | no killing effect
